Test results published in US20240109973A1 (Memorial Sloan Kettering, published 2024).
Blank lines part the entries; values can stand above or below the binder they belong to.

Columns and labels:
human CD40 on cells [1] = target: T1, human CD40 on cells (human, UniProt P25942 21-277); experiment: cell-based or functional assay
human CD40 on cells [2] = target: T1, human CD40 on cells; experiment: cell-based or functional assay; remark: listed apart in the source
human CD40 on cells [3] = target: T1, human CD40 on cells; experiment: flow cytometry, HEK293 cells overexpressing CD40
Experimental: (§1) To assess the binding of TDI-Y-003 to cell surface-bound CD40, HEK293 overexpressing CD40 as well as Raji cells (B-lymphocytes) and primary human dendritic cells, which express endogenous CD40, were used. TDI-Y-003 bound HEK293-CD40 and Raji cells with EC₅₀ values in the sub-nanomolar range at 0.44 and 0.77 nM, respectively (Table 5).

human CD40 on cells [4] = target: T1, human CD40 on cells; experiment: flow cytometry competition on HEK293 cells stably expressing CD40; competitor HA-tagged CD40 ligand detected with PE anti-HA
Experimental: FIG. 4. Competitive binding of TDI-Y-003 with CD40 ligand to CD40 stably expressed on HEK293 cells. HEK293 cells stably expressing CD40 were co-incubated with either TDI-Y-003 or isotype control antibody and HA-tagged CD40 ligand. CD40 ligand binding was assessed by flow cytometry with a PE labeled anti-HA antibody. Results are normalized to secondary antibody only controls (MFI ratio).
Competitive binding of TDI-Y-003 with CD40L for binding to CD40 was assessed using HEK293 cells stably expressing CD40. Cells were co-incubated with HA tagged CD40 ligand and TDI-Y-003 or isotype control at the indicated concentrations and analyzed for CD40 ligand binding by flow cytometry (FIG. 4).

human CD40-Fc = target: T2, human CD40-Fc (human, UniProt P25942 21-192); experiment: BLI, Octet Red96e; avidity between bivalent IgG and dimeric CD40-Fc
T2 construct: range 21-192; also called dimeric CD40-Fc; not shown: human Fc fragment fused to the carboxy-terminus
T2 sequence (P25942 21-192): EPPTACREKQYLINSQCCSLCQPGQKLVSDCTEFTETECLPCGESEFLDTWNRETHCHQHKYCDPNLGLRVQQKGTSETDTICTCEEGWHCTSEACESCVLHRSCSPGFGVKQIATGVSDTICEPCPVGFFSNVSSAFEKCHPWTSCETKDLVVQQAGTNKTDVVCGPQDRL
Experimental: (§2) Antibody TDI-Y-003 produced in stable CHO pools was tested in a series of binding and functional assays in vitro as well as an in vivo study in a disease-relevant animal model. Affinity to human CD40 was measured by BLI using an Octet Red96e. […] The slower off-rate seen for this interaction is likely a result of the avidity between the bivalent TDI-Y-003 IgG and the dimeric CD40-Fc.

Cyno CD40-His = target: T3, Cyno CD40-His (cynomolgus monkey, UniProt G7PG38 21-192); experiment: BLI, Octet Red96e
T3 construct: also called monomeric cynomolgus monkey CD40; not shown: His tag
Experimental: (§3) Affinity to cynomolgus monkey and mouse CD40 was measured by BLI using an Octet Red96e.

Mouse CD40-His = target: T4, Mouse CD40-His (mouse, UniProt P27512 24-192, limits assumed); experiment: BLI, Octet Red96e
T4 construct: also called monomeric mouse CD40; not shown: His tag
T4 sequence (looked up): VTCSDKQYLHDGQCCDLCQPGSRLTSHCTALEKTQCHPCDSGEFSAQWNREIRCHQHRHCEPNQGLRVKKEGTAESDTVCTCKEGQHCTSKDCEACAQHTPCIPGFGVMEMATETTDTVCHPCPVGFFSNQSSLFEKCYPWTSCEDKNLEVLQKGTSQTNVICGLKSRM
Experimental: as §3

human CD40 on cells [5] = target: T1, human CD40 on cells; experiment: flow cytometry, Raji cells (endogenous CD40)
Experimental: as §1

[6] = target: T5, recombinant human CD40 (residues 21-192) fused to a 6×His-tag at the carboxy-terminus (human, UniProt P25942 21-192); experiment: BLI, Octet Red96e
T5 construct: range 21-192; also called Human CD40-His; soluble, monomeric human CD40-His
T5 sequence (P25942 other isoform, or with tags, fused parts or gaps limits assumed): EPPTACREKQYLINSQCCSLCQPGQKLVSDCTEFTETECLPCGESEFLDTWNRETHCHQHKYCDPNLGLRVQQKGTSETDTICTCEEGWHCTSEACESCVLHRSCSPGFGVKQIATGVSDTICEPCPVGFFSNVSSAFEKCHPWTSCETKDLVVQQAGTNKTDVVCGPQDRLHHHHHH
Experimental: as §2

human CD40 on cells [7] = target: T1, human CD40 on cells; experiment: flow cytometry, primary human dendritic cells (endogenous CD40)
Experimental: as §1

human CD40 on cells [8] = target: T1, human CD40 on cells; experiment: cell-based or functional assay; remark: listed apart in the source
[9] = target: T5, recombinant human CD40 (residues …); experiment: BLI, soluble monomeric human CD40-His
Experimental: Dissociation constants (KD), on-rates (kon) and off-rates (koff) for the 10F12 chimeric mAb were determined by BLI using soluble, monomeric human CD40-His (Table 1).

T1 sequence (P25942 21-277): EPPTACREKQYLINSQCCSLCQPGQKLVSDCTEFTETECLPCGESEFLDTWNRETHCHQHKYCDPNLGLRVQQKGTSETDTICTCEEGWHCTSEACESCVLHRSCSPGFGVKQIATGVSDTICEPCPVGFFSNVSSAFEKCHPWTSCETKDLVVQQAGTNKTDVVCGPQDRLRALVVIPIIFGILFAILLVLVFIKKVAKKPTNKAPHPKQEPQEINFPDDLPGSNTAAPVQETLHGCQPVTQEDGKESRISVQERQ

B2: TDI-Y-003 (antibody, human IgG2, kappa, V domains shown)
VH: QVQLQESGPGLVKPSETLSLTCTVSGFSLTTYGLHWIRQPPGKGLEWIGVIWRGGNTDYNPSLKSRVTISKDTSKNQVSLKLSSVTAADTAVYYCAKNSYYGQGGHAMDYWGQGTLVTVSS
VL: DIVMTQSPDSLAVSLGERATINCKSSQSLLHSFNQKNYLAWYQQKPGQPPKLLIYFTSTRESGVPDRFSGSGSGTDFTLTISSLQAEDVAVYYCQQHYTTPFTFGQGTKLEIKR
notes: also called Hu10F12 (N103Q); hu10F12 (N103Q)
- EC50 in agonist assay (HEK293 NF-kB-luciferase reporter line stably expressing CD40) (human CD40 on cells [1]): 0.64 nM
- EC50 in DC activation assay, marker CD80 (human CD40 on cells [2]): 2 nM
- EC50 in DC activation assay, marker CD86 (human CD40 on cells [2]): 5.5 nM
- EC50 in DC activation assay, marker HLA-ABC (human CD40 on cells [2]): 2.5 nM
- EC50 in DC activation assay, marker HLA-DR (human CD40 on cells [2]): 1.7 nM
- EC50 (human CD40 on cells [3]): 0.44 nM
- IC50 (human CD40 on cells [4]): 1.07 nM
- Kd (human CD40-Fc): 1.2 nM
- koff (human CD40-Fc): 0.0013 s⁻¹
- kon (human CD40-Fc): 1e+06 M⁻¹ s⁻¹
- Kd (Cyno CD40-His): 48 nM
- koff (Cyno CD40-His): 0.0471 s⁻¹
- kon (Cyno CD40-His): 977000 M⁻¹ s⁻¹
- binding result (Mouse CD40-His): no binding (tested: 1.7 µM)
- EC50 (human CD40 on cells [5]): 0.77 nM
- Kd [6]: 40 nM
- koff [6]: 0.048 s⁻¹
- kon [6]: 1.2e+06 M⁻¹ s⁻¹
- EC50 (human CD40 on cells [7]): 3.85 nM

B5: 10F12 chimeric mAb, human IgG1 (antibody, V domains shown)
VH: QVQLKQSGPGLVQPSQSLSITCTVSGFSLTTYGLHWVRQSPGKGLEWLGVIWRGGNTDYNAAFMSRLSITKDNSKSQVFFKMNSLQADDTAIYYCAKNSYYGNGGHAMDYWGQGTSVTVSS
VL: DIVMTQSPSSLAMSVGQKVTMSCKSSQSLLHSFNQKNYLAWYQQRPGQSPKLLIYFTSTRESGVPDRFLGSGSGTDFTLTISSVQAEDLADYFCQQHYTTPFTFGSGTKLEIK
notes: Mouse variable regions fused to human constant regions of the IgG1 subclass; Expressed in HEK293 cells; also called 10-F12 (Human IgG1)
- Kd [9]: 27.1 nM
- koff [9]: 0.0071 s⁻¹
- kon [9]: 262000 M⁻¹ s⁻¹
- EC50 for agonist activity (HEK293-CD40 NF-κB-Luciferase reporter system) (human CD40 on cells [8]): 0.333 nM
- Max Stim [% CD40L] (HEK293-CD40 NF-κB-Luciferase reporter system) (human CD40 on cells [8]): 63.4 % CD40L

B6: 10F12 chimeric mAb, human IgG2 (antibody, V domains shown)
VH: B5 VH
VL: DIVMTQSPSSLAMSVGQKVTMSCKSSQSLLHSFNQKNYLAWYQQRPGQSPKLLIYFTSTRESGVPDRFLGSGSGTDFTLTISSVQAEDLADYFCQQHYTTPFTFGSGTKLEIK
notes: Mouse variable regions fused to human constant regions of the IgG2 subclass; Expressed in HEK293 cells; also called 10-F12 (Human IgG2); 10-F12 hIgG2
- Kd [9]: 26.5 nM
- koff [9]: 0.00911 s⁻¹
- kon [9]: 344000 M⁻¹ s⁻¹
- EC50 for agonist activity (HEK293-CD40 NF-κB-Luciferase reporter system) (human CD40 on cells [8]): 0.01 nM
- Max Stim [% CD40L] (HEK293-CD40 NF-κB-Luciferase reporter system) (human CD40 on cells [8]): 96.5 % CD40L

Next, values leading:

- EC50 in agonist assay (HEK293 NF-kB-luciferase reporter line stably expressing CD40) (human CD40 on cells [1]): 2.14 nM
B1: TDI-Y-003 F(ab′)2 fragment generated by pepsin cleavage (other)
heavy: QVQLQESGPGLVKPSETLSLTCTVSGFSLTTYGLHWIRQPPGKGLEWIGVIWRGGNTDYNPSLKSRVTISKDTSKNQVSLKLSSVTAADTAVYYCAKNSYYGQGGHAMDYWGQGTLVTVSSASTKGPSVFPLAPCSRSTSESTAALGCLVKDYFPEPVTVSWNSGALTSGVHTFPAVLQSSGLYSLSSVVTVPSSNFGTQTYTCNVDHKPSNTKVDKTVERKCCVECPPCPAPPVAGPSVFLFPPKPKDTLMISRTPEVTCVVVDVSHEDPEVQFNWYVDGVEVHNAKTKPREEQFNSTFRVVSVLTVVHQDWLNGKEYKCKVSNKGLPAPIEKTISKTKGQPREPQVYTLPPSREEMTKNQVSLTCLVKGFYPSDIAVEWESNGQPENNYKTTPPMLDSDGSFFLYSKLTVDKSRWQQGNVFSCSVMHEALHNHYTQKSLSLSPG
light: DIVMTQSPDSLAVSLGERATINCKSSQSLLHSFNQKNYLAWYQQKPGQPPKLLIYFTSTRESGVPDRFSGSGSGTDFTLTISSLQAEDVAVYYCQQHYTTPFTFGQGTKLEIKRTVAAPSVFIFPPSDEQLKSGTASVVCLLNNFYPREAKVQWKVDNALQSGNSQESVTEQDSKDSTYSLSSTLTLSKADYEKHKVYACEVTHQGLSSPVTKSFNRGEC

- EC50 in agonist assay (HEK293 NF-kB-luciferase reporter line stably expressing CD40) (human CD40 on cells [1]): 112 nM
B3: TDI-Y-003 Fab fragment generated by papain cleavage (Fab, V domains shown)
VH: B2 VH
VL: B2 VL

- EC50 in agonist assay (HEK293 NF-kB-luciferase reporter line stably expressing CD40) (human CD40 on cells [1]): 9.62 nM
- EC50 for agonist activity (HEK293-CD40 NF-κB-Luciferase reporter system) (human CD40 on cells [8]): 3.58 nM
- Max Stim [% CD40L] (HEK293-CD40 NF-κB-Luciferase reporter system) (human CD40 on cells [8]): 100 % CD40L
B4: human CD40L (ligand, UniProt P29965 113-261, looked up)
chain: MQKGDQNPQIAAHVISEASSKTTSVLQWAEKGYYTMSNNLVTLENGKQLTVKRQGLYYIYAQVTFCSNREASSQAPFIASLCLKSPGRFERILLRAANTHSSAKPCGQQSIHLGGVFELQPGASVFVNVTDPSQVSHGTGFTSFGLLKL
